Experimental data reported in patent US20080280308A1.

Assays:
[1] = biological target: light-activated rhodopsin (bovine) (UniProt P02699); assay: ELISA, MBP fusion on light-activated rhodopsin
[2] = biological target: human thrombin receptor (PAR1) (human) (UniProt P25116); assay: ELISA, purified MBP-Gαq on reconstituted PAR1 with thrombin receptor activating peptide
[3] = biological target: β2 adrenergic receptor; assay: ELISA of panned Gs library clones on reconstituted receptor

Sequence of light-activated rhodopsin (bovine) (P02699 whole entry, the tested form may be a part): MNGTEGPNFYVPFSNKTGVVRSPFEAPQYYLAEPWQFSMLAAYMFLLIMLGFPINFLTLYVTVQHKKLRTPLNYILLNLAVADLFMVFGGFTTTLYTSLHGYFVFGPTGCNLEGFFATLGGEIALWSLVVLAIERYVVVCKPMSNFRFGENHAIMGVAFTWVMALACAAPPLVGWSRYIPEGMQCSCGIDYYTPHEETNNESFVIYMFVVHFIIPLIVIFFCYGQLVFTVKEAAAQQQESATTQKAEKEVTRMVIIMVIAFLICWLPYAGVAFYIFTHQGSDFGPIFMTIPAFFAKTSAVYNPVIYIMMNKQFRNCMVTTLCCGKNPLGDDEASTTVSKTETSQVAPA
Sequence of human thrombin receptor (PAR1) (human) (P25116 42-425): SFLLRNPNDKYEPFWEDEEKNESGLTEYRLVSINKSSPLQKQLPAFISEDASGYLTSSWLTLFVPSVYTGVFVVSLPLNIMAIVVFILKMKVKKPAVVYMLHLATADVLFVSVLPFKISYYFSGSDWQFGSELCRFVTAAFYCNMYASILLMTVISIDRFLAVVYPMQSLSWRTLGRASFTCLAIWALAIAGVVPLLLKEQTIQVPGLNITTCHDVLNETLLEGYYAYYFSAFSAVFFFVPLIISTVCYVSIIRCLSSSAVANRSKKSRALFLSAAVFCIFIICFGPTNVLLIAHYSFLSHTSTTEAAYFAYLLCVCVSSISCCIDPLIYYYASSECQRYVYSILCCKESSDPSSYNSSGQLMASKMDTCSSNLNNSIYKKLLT

| Molecule | ELISA [3] | other results |
| --- | --- | --- |
| MBP-Gαt340-350K341R | – | IC50 [1]: 6 µM |
| maltose binding protein-Gαq (MBP-Gαq) | – | IC50 [2]: 0.214 µM |
| HRRHIGPFALL [BAR11 …] | 0.048 | – |
| PRPRLLRFKIP [AG19 …] | 0.361 | – |
| PCIQLGQYESF [BAR40 …] | 0.028 | – |
| QRMNLGPCGLL [AG18 …] | 0.155 | – |
| QRMPLRQYELL [AG9 …] | 0.19 | – |
| QWMDLRQHELL [BAR3 …] | 0.185 | – |
| QRLRLRKYRLF [BAR31 …] | 0.026 | – |
| QRVHLRQDELL [BAR2 …] | 0.197 | – |
| QRLHLRGYEFL [AG13 …] | 0.054 | – |
| ERLHRRLFQLH [BAR8 …] | 0.047 | – |
| RWLHWQYRGRG [AG20 …] | 0.431 | – |
| QRLRLGPDELF [AG4 …] | 0.291 | – |
| QRMPLRLFEFL [AG3 …] | 0.217 | – |
| DRMHLWRFGLL [AG11 …] | 0.192 | – |
| QRIHRRPFKFF [BAR1 …] | 0.218 | – |
| NCMKFRSCGLF [BAR20 …] | 0.079 | – |
| QGEHLRQLQLQ [AG2 …] | 0.33 | – |
| QGMQLRRFKLR [AG1 …] | 0.435 | – |
